# Laboratory results reported in patent US20240261333A1, “NOVEL TARGETS FOR ENHANCING ANTI-TUMOR IMMUNITY” (THE BROAD INSTITUTE, INC., priority 2021, published 2024).
# How the values were obtained:
# DDX1 (human) = DDX1 (human) (UniProt Q92499); assay: co-IP with anti-FLAG, N-FLAG B3GNT2, mass spectrometry
# EMILIN1 (human) = EMILIN1 (human) (UniProt Q9Y6C2); assay: as above
# GSN (human) = GSN (human) (UniProt P06396); assay: as above
# IL13RA2 (human) = IL13RA2 (human) (UniProt Q14627); assay: as above
# Sequence of IL13RA2 (human) (Q14627 27-380 limits assumed): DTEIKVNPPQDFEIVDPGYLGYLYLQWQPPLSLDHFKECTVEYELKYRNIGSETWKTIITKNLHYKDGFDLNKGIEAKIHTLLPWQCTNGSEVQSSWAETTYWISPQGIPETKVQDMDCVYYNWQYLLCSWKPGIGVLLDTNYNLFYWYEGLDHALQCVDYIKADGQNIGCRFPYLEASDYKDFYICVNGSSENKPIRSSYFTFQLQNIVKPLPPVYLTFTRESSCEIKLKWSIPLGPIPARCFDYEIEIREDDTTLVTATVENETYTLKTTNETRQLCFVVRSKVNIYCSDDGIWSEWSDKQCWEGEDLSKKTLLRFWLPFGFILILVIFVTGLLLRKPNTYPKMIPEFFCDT
# LCN1 (human) = LCN1 (human) (UniProt P31025); assay: as above
# LUC7L3 (human) [1] = target: LUC7L3 (human) (UniProt O95232); assay: as above
# MMP14 (human) [2] = target: MMP14 (human) (UniProt P50281); assay: as above
# PSMA3 (human) [3] = target: PSMA3 (human) (UniProt P25788); assay: as above
# Sequence of PSMA3 (human) (P25788 2-255 limits assumed): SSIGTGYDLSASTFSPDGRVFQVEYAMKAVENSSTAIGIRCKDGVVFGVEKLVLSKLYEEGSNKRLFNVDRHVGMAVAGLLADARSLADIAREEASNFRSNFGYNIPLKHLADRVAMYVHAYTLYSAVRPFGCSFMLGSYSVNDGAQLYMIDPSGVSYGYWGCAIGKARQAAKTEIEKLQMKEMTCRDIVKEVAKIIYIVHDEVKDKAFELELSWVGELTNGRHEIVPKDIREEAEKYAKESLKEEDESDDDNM
# PSMB5 (human) = PSMB5 (human) (UniProt P28074); assay: as above
# RACK1 (human) = RACK1 (human) (UniProt P63244); assay: as above
# RPL17 (human) = RPL17 (human) (UniProt P18621); assay: as above
# RPL7 (human) = RPL7 (human) (UniProt P18124); assay: as above
# RPL8 (human) = RPL8 (human) (UniProt P62917); assay: as above
# XPOT (human) [4] = target: XPOT (human) (UniProt O43592); assay: as above
# Sequence of XPOT (human) (O43592 whole entry): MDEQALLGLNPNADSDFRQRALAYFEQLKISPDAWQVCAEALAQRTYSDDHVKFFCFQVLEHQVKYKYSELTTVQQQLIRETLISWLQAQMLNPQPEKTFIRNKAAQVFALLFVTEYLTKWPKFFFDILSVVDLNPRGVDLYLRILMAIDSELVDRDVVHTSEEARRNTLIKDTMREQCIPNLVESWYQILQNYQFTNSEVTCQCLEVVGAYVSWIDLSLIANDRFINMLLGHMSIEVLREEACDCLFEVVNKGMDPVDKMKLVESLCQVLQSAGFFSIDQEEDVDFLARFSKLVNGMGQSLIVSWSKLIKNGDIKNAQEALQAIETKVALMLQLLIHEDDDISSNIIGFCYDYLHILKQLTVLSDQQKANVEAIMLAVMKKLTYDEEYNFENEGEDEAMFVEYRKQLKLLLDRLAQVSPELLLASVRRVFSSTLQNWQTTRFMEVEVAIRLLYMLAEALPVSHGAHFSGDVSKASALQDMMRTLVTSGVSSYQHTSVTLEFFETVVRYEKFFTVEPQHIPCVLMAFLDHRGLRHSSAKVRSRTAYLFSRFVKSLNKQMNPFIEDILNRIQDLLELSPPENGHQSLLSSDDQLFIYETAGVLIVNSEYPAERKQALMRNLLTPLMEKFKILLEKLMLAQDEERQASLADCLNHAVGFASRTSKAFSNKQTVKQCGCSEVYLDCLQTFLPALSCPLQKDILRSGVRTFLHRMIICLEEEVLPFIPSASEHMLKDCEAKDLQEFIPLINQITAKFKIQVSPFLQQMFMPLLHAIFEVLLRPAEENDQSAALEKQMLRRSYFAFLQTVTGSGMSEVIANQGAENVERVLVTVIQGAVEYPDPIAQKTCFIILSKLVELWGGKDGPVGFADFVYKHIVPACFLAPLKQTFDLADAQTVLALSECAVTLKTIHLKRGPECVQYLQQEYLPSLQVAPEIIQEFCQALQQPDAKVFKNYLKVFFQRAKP
# ARPC1B (human) = ARPC1B (human) (UniProt O15143); assay: co-IP with IgG control, lysate of C-FLAG B3GNT2 cells, mass spectrometry
# CLTC (human) = CLTC (human) (UniProt Q00610); assay: as above
# COPA (human) = COPA (human) (UniProt P53621); assay: as above
# CPSF7 (human) = CPSF7 (human) (UniProt Q8N684); assay: as above
# HBB (human) = HBB (human) (UniProt P68871); assay: as above
# JUP (human) = JUP (human) (UniProt P14923); assay: as above
# LUC7L3 (human) [5] = target: LUC7L3 (human) (UniProt O95232); assay: as above
# MMP14 (human) [6] = target: MMP14 (human) (UniProt P50281); assay: as above
# NAP1L1 (human) = NAP1L1 (human) (UniProt P55209); assay: as above
# Sequence of NAP1L1 (human) (P55209 2-388 limits assumed): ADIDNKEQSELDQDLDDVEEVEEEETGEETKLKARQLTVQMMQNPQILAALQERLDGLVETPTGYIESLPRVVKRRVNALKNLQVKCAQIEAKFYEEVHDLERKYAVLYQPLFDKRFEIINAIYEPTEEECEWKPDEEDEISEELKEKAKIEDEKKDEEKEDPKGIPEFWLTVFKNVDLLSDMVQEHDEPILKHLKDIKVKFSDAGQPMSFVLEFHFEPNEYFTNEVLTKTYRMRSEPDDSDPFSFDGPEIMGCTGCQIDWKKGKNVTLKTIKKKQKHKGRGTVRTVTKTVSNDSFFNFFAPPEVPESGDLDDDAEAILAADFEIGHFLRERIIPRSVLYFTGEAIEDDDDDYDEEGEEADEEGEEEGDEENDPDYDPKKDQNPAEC
# [7] = target: P0AA25.2 [thioredoxin: P0AA25]; assay: as above
# PRRC2C (human) = PRRC2C (human) (UniProt Q9Y520); assay: as above
# PSMA3 (human) [8] = target: PSMA3 (human) (UniProt P25788); assay: as above
# PUF60 (human) = PUF60 (human) (UniProt Q9UHX1); assay: as above
# Sequence of PUF60 (human) (Q9UHX1 whole entry): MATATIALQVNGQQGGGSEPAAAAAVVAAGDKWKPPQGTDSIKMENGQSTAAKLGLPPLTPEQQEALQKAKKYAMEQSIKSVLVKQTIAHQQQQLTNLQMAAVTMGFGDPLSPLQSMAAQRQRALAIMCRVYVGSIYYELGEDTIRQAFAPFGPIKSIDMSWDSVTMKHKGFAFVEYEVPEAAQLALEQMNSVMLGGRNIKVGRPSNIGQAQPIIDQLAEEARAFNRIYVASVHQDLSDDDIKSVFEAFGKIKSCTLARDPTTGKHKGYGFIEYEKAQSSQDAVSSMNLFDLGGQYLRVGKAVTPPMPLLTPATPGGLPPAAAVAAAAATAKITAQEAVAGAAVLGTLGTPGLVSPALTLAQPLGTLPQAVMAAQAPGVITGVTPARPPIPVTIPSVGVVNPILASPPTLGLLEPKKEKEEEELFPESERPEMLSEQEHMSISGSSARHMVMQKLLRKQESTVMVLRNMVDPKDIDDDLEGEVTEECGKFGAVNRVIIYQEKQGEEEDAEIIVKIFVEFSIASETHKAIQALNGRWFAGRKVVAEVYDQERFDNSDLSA
# RBM14 (human) = RBM14 (human) (UniProt Q96PK6); assay: as above
# RPL6 (human) = RPL6 (human) (UniProt Q02878); assay: as above
# RPS24 (human) = RPS24 (human) (UniProt P62847); assay: as above
# SBSN (human) = SBSN (human) (UniProt Q6UWP8); assay: as above
# SPARC (human) = SPARC (human) (UniProt P09486); assay: as above
# SRSF6 (human) = SRSF6 (human) (UniProt Q13247); assay: as above
# TM9SF1 (human) = TM9SF1 (human) (UniProt O15321); assay: as above
# TPM2 (human) = TPM2 (human) (UniProt P07951); assay: as above
# TTC13 (human) = TTC13 (human) (UniProt Q8NBP0); assay: as above
# XPO1 (human) = XPO1 (human) (UniProt O14980); assay: as above
# XPOT (human) [9] = target: XPOT (human) (UniProt O43592); assay: as above
# Sequence of DDX1 (human) (Q92499 whole entry): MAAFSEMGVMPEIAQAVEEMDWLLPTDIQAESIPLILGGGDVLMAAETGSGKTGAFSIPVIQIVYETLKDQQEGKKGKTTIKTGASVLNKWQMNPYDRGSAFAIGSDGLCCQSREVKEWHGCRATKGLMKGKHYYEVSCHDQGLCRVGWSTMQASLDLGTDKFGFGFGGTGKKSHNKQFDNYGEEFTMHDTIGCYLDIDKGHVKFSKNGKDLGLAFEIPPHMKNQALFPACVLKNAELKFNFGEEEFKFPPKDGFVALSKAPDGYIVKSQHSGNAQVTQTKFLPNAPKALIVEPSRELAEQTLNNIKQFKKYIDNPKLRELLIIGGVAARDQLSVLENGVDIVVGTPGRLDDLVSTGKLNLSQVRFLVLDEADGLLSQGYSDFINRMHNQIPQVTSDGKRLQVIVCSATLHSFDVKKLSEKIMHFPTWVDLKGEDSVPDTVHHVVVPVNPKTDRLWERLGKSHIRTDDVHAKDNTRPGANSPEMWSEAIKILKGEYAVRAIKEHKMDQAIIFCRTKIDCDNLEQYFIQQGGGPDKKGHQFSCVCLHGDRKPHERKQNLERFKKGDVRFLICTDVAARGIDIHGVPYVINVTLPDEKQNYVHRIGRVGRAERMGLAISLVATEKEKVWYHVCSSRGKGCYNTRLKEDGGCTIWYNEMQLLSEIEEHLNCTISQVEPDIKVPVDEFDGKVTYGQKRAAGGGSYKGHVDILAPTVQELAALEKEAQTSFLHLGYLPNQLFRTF
# Sequence of GSN (human) (P06396 28-782 limits assumed): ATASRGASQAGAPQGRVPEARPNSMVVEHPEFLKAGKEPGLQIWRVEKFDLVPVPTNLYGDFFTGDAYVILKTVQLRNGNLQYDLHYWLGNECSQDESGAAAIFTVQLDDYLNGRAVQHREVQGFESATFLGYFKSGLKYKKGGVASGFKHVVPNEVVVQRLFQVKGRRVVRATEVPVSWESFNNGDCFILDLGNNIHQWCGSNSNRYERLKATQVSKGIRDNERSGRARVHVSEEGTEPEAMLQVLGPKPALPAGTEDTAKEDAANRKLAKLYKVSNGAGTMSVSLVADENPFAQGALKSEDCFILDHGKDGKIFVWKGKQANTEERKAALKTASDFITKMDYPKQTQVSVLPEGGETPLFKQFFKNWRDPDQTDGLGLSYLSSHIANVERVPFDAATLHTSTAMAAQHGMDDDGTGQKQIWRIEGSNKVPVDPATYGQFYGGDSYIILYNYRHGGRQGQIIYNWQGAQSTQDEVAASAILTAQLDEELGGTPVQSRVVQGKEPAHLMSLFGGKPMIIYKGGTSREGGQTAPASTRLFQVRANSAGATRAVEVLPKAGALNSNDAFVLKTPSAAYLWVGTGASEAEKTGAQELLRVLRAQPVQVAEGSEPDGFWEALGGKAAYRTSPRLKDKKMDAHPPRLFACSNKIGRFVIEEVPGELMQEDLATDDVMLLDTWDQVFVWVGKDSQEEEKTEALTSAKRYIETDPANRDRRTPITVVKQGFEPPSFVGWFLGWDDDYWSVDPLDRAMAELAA
# Sequence of EMILIN1 (human) (Q9Y6C2 22-1016 limits assumed): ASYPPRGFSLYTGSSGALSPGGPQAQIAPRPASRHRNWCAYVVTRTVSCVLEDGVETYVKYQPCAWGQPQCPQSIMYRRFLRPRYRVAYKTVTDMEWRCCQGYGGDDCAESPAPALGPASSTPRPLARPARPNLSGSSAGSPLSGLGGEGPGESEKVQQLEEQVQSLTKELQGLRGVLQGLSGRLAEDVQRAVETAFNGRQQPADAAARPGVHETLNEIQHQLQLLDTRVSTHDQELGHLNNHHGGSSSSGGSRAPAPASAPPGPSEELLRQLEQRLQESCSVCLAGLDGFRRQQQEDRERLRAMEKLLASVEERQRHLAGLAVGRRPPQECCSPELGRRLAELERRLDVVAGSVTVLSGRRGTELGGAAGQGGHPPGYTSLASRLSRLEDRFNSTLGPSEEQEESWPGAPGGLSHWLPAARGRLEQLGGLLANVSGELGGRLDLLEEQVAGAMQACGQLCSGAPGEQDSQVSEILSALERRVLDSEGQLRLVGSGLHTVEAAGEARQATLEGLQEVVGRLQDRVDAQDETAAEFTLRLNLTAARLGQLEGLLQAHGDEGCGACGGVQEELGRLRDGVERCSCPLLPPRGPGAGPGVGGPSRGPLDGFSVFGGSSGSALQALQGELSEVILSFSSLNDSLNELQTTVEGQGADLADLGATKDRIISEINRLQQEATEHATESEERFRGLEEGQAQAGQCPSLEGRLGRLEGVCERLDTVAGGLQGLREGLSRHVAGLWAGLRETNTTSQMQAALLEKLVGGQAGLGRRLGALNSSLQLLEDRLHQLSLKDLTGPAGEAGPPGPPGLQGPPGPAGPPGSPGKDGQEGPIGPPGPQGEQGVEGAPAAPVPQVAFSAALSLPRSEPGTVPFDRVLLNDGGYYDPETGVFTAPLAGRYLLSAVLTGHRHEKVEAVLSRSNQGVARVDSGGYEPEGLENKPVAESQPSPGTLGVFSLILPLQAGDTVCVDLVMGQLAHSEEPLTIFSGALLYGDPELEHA
substance,measurement,setting,value
N-terminal FLAG tagged B3GNT2 (from UniProt Q9NY97 1-397) (enzyme),co-IP mass spectrometry count,DDX1 (human),7
same,co-IP mass spectrometry count,EMILIN1 (human),2
same,co-IP mass spectrometry count,GSN (human),2
same,co-IP mass spectrometry count,IL13RA2 (human),3
same,co-IP mass spectrometry count,LCN1 (human),11
same,"co-IP/MS count, N-term FLAG",LUC7L3 (human) [1],4
same,"co-IP/MS count, N-term FLAG",MMP14 (human) [2],2
same,"co-IP/MS count, N-term FLAG",PSMA3 (human) [3],4
same,"co-IP/MS count, N-term FLAG",PSMB5 (human),4
same,co-IP mass spectrometry count,RACK1 (human),2
same,"co-IP/MS count, N-term FLAG",RPL17 (human),3
same,co-IP mass spectrometry count,RPL7 (human),10
same,co-IP mass spectrometry count,RPL8 (human),10
same,"co-IP/MS count, N-term FLAG",XPOT (human) [4],2
IgG control (Millipore Sigma 12-371) (antibody),"co-IP/MS count, C-term IgG",ARPC1B (human),2
same,"co-IP/MS count, C-term IgG",CLTC (human),5
same,"co-IP/MS count, C-term IgG",COPA (human),0
same,"co-IP/MS count, C-term IgG",CPSF7 (human),9
same,"co-IP/MS count, C-term IgG",HBB (human),0
same,"co-IP/MS count, C-term IgG",JUP (human),36
same,"co-IP/MS count, C-term IgG",LUC7L3 (human) [5],3
same,"co-IP/MS count, C-term IgG",MMP14 (human) [6],0
same,"co-IP/MS count, C-term IgG",NAP1L1 (human),0
same,"co-IP/MS count, C-term IgG",[7],8
same,"co-IP/MS count, C-term IgG",PRRC2C (human),6
same,"co-IP/MS count, C-term IgG",PSMA3 (human) [8],0
same,"co-IP/MS count, C-term IgG",PUF60 (human),5
same,"co-IP/MS count, C-term IgG",RBM14 (human),0
same,"co-IP/MS count, C-term IgG",RPL6 (human),4
same,"co-IP/MS count, C-term IgG",RPS24 (human),2
same,"co-IP/MS count, C-term IgG",SBSN (human),15
same,"co-IP/MS count, C-term IgG",SPARC (human),0
same,"co-IP/MS count, C-term IgG",SRSF6 (human),5
same,"co-IP/MS count, C-term IgG",TM9SF1 (human),0
same,"co-IP/MS count, C-term IgG",TPM2 (human),0
same,"co-IP/MS count, C-term IgG",TTC13 (human),0
same,"co-IP/MS count, C-term IgG",XPO1 (human),0
same,"co-IP/MS count, C-term IgG",XPOT (human) [9],0
